This is an account of results in publication PMC9114487, “Generation of a High-Affinity Nanobody Against CD147 for Tumor Targeting and Therapeutic Efficacy Through Conjugating Doxorubicin” (Frontiers in Immunology, 2022).

B1: EGFP-VHH fusion protein EGFP-11-1 (VHH)
VHH: QVQLQESGGGSVQAGGSLRLSCAVSGYTYSSCSMDWYRQAPGKERELVSSISSGGNTYYEDSVKGRFTISQDNAKNTVYLQMNSLKPEDTASYYCKMWCPGNKSYWGQGTQVTVSS
notes: as the VHH of m1; About 40 kDa by SDS-PAGE; also called 11-1-EGFP; EGFP-11-1 Nbs; source: E. coli BL21(DE3), pET-25b, purified (His-Trap HP column); not shown: EGFP, C-terminal, kept
B2: anti-CD147 nanobody 11-1 (VHH)
VHH: QVQLQESGGGSVQAGGSLRLSCAVSGYTYSSCSMDWYRQAPGKERELVSSISSGGNTYYEDSVKGRFTISQDNAKNTVYLQMNSLKPEDTASYYCKMWCPGNKSYWGQGTQVTVSS
notes: Selected by phage display from an immune VHH library; The immunised animal is called an alpaca in the methods, a camel in the results and a Bactrian camel in the discussion; About 13 kDa by SDS-PAGE; Surmise: pET-15b usually adds an N-terminal His tag; also called Nb 11-1; anti-CD147-VHH Nb (11-1); source: E. coli BL21(DE3), pET-15b, purified (His-Trap HP column)
B3: V-24 (VHH)
VHH: QVQLQESGGGLVLPGGSLRLSCAAFGFIFSDFDMSWVRQAPGKGLEWVSSISRYGRTSSADSVKGRFTISRDNAKNTLYLQMHSLKTDDTAVYYCATGNFCSGGRCYIDRGQGTQVTVSS
B4: V-28 (VHH)
VHH: QVQLQESGGGSVQAGGSLRLSCAAFGFIFSNYDMSWVRQAPGKGLEWVSSISRYGRTSSADSVKGRFTISRDNAKNTLYLQMNSLKTDDTAVYYCTTGNFCSGGRCYSNRGQGTQVTVSS
B5: V-29 (VHH)
VHH: QVQLQESGGGLVQPGGSLRLSCAAFGFIFSNYDMSWVRQAPGKGFEWVSSISRYGRTSNADAVKGRFTISRDNAKNTLYLQMNSLKTDDTAVYYCATGNFCSGGRCYINRGQGTQVTVSS
B6: V-27 (VHH)
VHH: QVQLQESGGGLVQPGGSLRLSCAAFGFIFSNYDMSWVRQAPGKGLEWVSSISRYGRTSSADSVKGRFTISRDNAKNTLYLQMNSLKTDDTAVYYCATGNFCSGGRCYIDRGQGTQVTVSS
B7: V-26 (VHH)
VHH: QVQLQESGGGSVQAGGSLRLSCAAFGFIFSNYDMSWVRQAPGKGFEWVSSISRYGRTSNADAVKGRFTISRDNAKNTLYLQMNSLKTDDTAVYYCATGNFCSGGRCYINRGQGTQVTVSS
B8: V-25 (VHH)
VHH: QVQLQESGGGLVQPGGSLRLSCAAFGFIFSNFDMSWVRQAPGKGLEWVSSISRYGRTSSADSVKGRFTISRDNAKNTLYLEMNSLKSADTAVYYCATGNFCSGGRCYINRGQGTQVTVSS
B9: V-5 (VHH)
VHH: QVQLQESGGGSVQAGETLTLSCTASGYTFSSSNCMGWFRQAPGQEREDVAIISVRGGITYYADSVKGRFTISRDNAKNTLSLQMNSLKPEDTAVYYCAADNPKYRDLYNAHCNWSYRYWGQGTQVTVSS
B10: V-20 (VHH)
VHH: QVQLQESGGGSVQAGGSLRLSCAASGYTFSSSNCMGWFRQAPGQEREDVAIISVRGGITYYVDSVKGRFTISRDNAKNTLSLQMNNLKPEDTAVYYCAADNPKYRDLHGGHCNWSYRYWGQGTQVTVSS
B11: V-21 (VHH)
VHH: QVQLQESGGGSVQAGGSLRLSCAASGYTFSSSNCMGWFRQAPGKEREDVAIISVRGGITYYADSVKGRFTISRDSAKNTLSLQMNSLKSEDTAVYYCAADNPKYRQLSNAHCNWSYRYWGQGTQVTVSS
B12: V-15 (VHH)
VHH: QVQLQESGGGSAQAGGSLRLSCAASGYTFSSSNCMGWFRQAPGKEREGVAIISVRGGITYYADSVKGRFTISRDNAKNTLSLQMNSLKPEDTAVYYCAADNPKYRDLYDAHCNWSYRYWGQGTQVTVSS
B13: V-18 (VHH)
VHH: QVQLQESGGGSVQAGGSLRLSCAASGYTFSSSNCMGWFRQAPGKEREDVAIISVRGGITYYTDSVKGRFTISRDNAKNTLSLQMNNLKPDDTAVYYCAADNPKYRDLYGAHCNWSYRYWGQGTQVTVSS
B14: V-9 (VHH)
VHH: QVQLQESGGGSVQAGGSLRLSCAASGYTFSSSNCMGWFRQAPGQEREDVAIISVRGGITYYVDSVKGRFTISRDNAKNTLSLQMNNLKPEDTAVYYCAADNPKYRDLYDAHCNWSYRYWGQGTQVTVSS
B15: V-7 (VHH)
VHH: QVQLQESGGGSVQAGGSLRLSCAASGYTFSSSNCMGWFRQAPGKEREDVAIISVRGGITYYADSVKGRFTISRDSAKNTLSLQMNSLKPEDTAVYYCAADNPKYRALSDAHCNWSYRYWGQGTQVTVSS
B16: V-1 (VHH)
VHH: QVQLQESGGGSVQAGGSLRLSCRASGYTFSRHCMGWFRQGPGKEREVVATIYTFNGRTYYADSVKGRFTVSQDNAQNSLYLQMDSLKPEDTAMYYCAAARIGWTSVSGSCPRMGDVNKYWGQGTQVTVSS
B17: V-2 (VHH)
VHH: QVQLQESGGGSVQAGGSLRLSCRASGYTFSRHCMGWFRQGPGKEREVVATIYTFNGHTYYADSVKGRFTISQDNPQNSLTLQMDSLKPEDTAMYYCAAARIGWTSVSGSCPRMGDVNKYWGQGTQVTVSS
B18: V-23 (VHH)
VHH: QVQLQESGGGSVQAGGSLRLSCRASGYTFSEHCMGWFRQGPGKERELVASIYTFNGRTYYADSVKGRFTISQDNAQNSLYLQMDSLKPEDTAMYYCAAARIGWTSVSGSCPRMGDVNKYWGQGTQVTVSS
B19: V-11 (VHH)
VHH: QVQLQESGGGSVQAGGSLRLSCRASGYTFSRHCMGWFRQGPGKERELVASIYTFNGRTYYADSVKGRFTISQDNAQNSLYLQMDSLKPEDTAMYYCAAARIGWTSVSGSCPRMGDENKYWGQGTQVTVSS
B20: V-22 (VHH)
VHH: QVQLQESGGGSVQAGGSLRLSCRASGYTFSRHCMGWFRQTPGKEREVVATIYTFNGHTYYADSVKGRFTISQDNAQNSLYLQMDSLKPEDTAMYYCAAARIGWTSVSGSCPRMGDVNKYWGQGTQVTVSS
B21: V-19 (VHH)
VHH: QVQLQESGGGSVQAGGSLRLSCRAPGYTFSRHCMGWFRQGPGEEREVVATIYTFNGRTTYADSVKGRFTISQDNAQNSLYLQMDSLKPEDTAMYYCAAARIGWTSASGSCPRMGDENKYWGQGTQVTVSS
B22: V-3 (VHH)
VHH: QVQLQESGGGSVQAGGTLRLSCRVSGYTFSRHCMGWFRQGPGKEREVVATIYTFNGRTSYADSVKGRFTISQDNAQNSLYLQMDSLKPEDTATYYCAAARIGWTSVSGSCPRMGDENKYWGQGTQVTVSS
B23: V-14 (VHH)
VHH: QVQLQESGGGSVQAGGSLRLSCRASGYTFSRHCMGWFRQGPGKEREVVATIYTFNGRTYYADSVKGRFTISQDNAQNSLYLQMDSLKPEDTAMYYCAAARIGWTSVSGSCPRMGDVNKYWGQGTQVTVSS
B24: V-13 (VHH)
VHH: QVQLQESGGGSVQAGGSLRLSCRASGYTFSEHCMGWFRQGPGKEREVVATIYTFNGRTYYADSVKGRFTISQDNAQNSLYLQMDSLKPEDTAMYYCAAARIGWTSVSGSCPRMGDVNKYWGQGTQVTVSS
B25: V-4 (VHH)
VHH: QVQLQESGGGSVQAGGSLRLSCSVSGGTFSSCSMDWFRQAPGKVRELVSSISSGGNTYYEDSVKGRFTISQDNAKTTVYLQMNSLKPEDTAMYYCKMFCPWNKSYWGQGTQVTVSS
B26: V-10 (VHH)
VHH: QVQLQESGGGSVQAGGSLRLSCSVSGSTFSSCSMDWFRQAPGKERGLVSSISSGGNTYYEDSVKGRFTISQDNAKNTVYLQMNSLKPEDTAMYYCKMWCPGNKSYWGQGTQVTVSS
B27: V-17 (VHH)
VHH: QVQLQESGGGSVQAGGSLRLSCAVSGYTYSSCSMDWYRQAPGKERELVSSISSGGNTYYEDSVKGRFTISQDNAKNTVYLRMNSLKPEDTAIYYCKMWCPWNKSYWGQGTQVTVSS

The target in one experiment is T1, ecto-domain protein of CD147 (Homo sapiens (assumed), isoform 2, UniProt P35613-2, biotin (Sulfo-NHS-LC-Biotin) in the BLI only).
T1 construct: CD147 (EMMPRIN, basigin), ecto-domain protein; also called CD147 protein; EMMPRIN
In words: BLI; kinetics between CD147 and EGFP-11-1 (Figure 3F); who was immobilised is not told for this pair. The conditions noted are these: both partners purified.
Target sequence in this assay (P35613 whole entry, looked up, tested part not stated, canonical isoform): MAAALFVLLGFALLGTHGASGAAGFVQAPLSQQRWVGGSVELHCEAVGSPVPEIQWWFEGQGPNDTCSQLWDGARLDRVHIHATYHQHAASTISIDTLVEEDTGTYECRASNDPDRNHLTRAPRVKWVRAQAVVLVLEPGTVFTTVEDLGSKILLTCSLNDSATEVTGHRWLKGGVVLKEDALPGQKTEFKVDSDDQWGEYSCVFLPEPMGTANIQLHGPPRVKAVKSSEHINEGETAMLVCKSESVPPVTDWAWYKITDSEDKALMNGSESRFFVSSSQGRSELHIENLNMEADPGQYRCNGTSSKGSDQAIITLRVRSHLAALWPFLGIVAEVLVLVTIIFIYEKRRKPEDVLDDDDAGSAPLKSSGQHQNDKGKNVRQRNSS
A word on the Kd: it is the equilibrium constant for the complex coming apart. Higher therefore signals lower affinity. The molecule B1 displayed a dissociation constant (Kd) of 11.1 nM.

A further experiment concerns the target C78 (C-terminal ecto-domain protein of CD147). In words: BLI; ForteBio Octet; biotin-labeled CD147 or C78 immobilized on the sensors (200 s); Nb 11-1 at different concentrations in PBST, 200 s; PBST 100 s; room temperature, shaking 1,000 rpm.
Settings: not given
(BLI is a label-free optical method that tracks binding on a fibre tip over time.)
As usually defined, the koff is the first-order rate constant of dissociation. A higher koff goes with fast dissociation. In general, kon refers to the second-order rate constant of association. Low values mean slow association, high ones fast association. Regarding B2, the Kd is 1.78 nM, the off-rate (koff) was 0.000104 s⁻¹ and the kon amounted to 58200 M⁻¹ s⁻¹.

For the next experiment, the target named is T1, ecto-domain protein of CD147.
Experiment: not given
Settings: not given
Target sequence in this assay (P35613 other isoform, or with tags, fused parts or gaps): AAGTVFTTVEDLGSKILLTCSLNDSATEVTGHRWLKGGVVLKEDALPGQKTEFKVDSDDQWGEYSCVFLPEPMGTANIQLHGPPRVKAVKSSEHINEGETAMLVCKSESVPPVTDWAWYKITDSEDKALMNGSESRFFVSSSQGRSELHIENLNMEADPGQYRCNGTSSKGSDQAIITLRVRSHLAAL
As for B3, the binding result was “binds”. As to B4, the binding result is reported as “binds”. As for B5, the binding result is recorded as “binds”.

Consider B6, for which the binding result is given as “binds”.

For B7, the binding result was “binds”. Still for that read-out and setting: next, B8: “binds”; B9: “binds”; B10: “binds”.

Consider B11, for which the binding result is “binds”. B12: the binding result was “binds”. Regarding B13, the binding result is “binds”. On to B14, for which the binding result is “binds”. Still for that read-out and setting: next, B15: “binds”; B16: “binds”. Consider B17, for which the binding result was “binds”. Still for that read-out and setting: next, B18: “binds”; B19: “binds”; B20: “binds”.

Turning to B21, the binding result is “binds”. As for B22, the binding result is “binds”.

Turning to B23, the binding result is recorded as “binds”. Regarding B24, the binding result is reported as “binds”. With B25, the binding result is “binds”. For the molecule B26, the binding result was “binds”. As to B27, the binding result is recorded as “binds”.

Another experiment shares this target. In words: BLI; ForteBio Octet; biotin-labeled CD147 or C78 immobilized on the sensors (200 s); Nb 11-1 at different concentrations in PBST, 200 s; PBST 100 s; room temperature, shaking 1,000 rpm. The conditions noted are these: both partners purified.
Target sequence in this assay (P35613 whole entry, looked up, tested part not stated, canonical isoform): as the sequence (P35613 whole entry, looked up, tested part not stated, canonical isoform) above
Consider B2, for which the Kd stood at 0.636 nM, the koff was 2.2e-05 s⁻¹ and the association rate constant (kon) was found to be 34600 M⁻¹ s⁻¹.
